{"source": "paper PMC2077811", "about": "(The Journal of biological chemistry, 2006)", "binders": {"B1": {"name": "GST-BRC3/4 (domain or fragment, human, UniProt P51587 1409-1596, looked up)", "chain": "LTATKTEQNIKDFETSDTFFQTASGKNISVAKESFNKIVNFFDQKPEELHNFSLNSELHSDIRKNKMDILSYEETDIVKHKILKESVPVGTGNQLVTFQGQPERDEKIKEPTLLGFHTASGKKVKIAKESLDKVKNLFDEKEQGTSEITSFSHQWAKTLKYREACKDLELACETIEITAAPKCKEMQN"}}, "target": "T1, hRad51 (human, UniProt Q06609 1-339)", "T1 sequence (looked up)": "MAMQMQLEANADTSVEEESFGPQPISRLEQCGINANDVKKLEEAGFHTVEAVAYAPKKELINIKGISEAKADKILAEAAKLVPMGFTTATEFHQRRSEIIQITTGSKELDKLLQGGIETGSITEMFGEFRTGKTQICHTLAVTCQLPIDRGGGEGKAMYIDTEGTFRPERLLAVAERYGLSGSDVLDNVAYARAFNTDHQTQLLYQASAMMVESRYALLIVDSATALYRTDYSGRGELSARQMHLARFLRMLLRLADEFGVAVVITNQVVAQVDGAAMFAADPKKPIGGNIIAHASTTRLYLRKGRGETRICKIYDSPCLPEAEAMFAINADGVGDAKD", "assay": "pull-down", "data": [{"binder": "B1", "values": [{"measurement": "binding result", "value": "binds"}]}]}
